The results in this text go back to patent US20040138119A1 (BURNHAM INSTITUTE, published 2004).

The labels stand for the following.
B3: His6-pro-Caspase-9 (enzyme)
chain: HHHHHHMDEADRRLLRRCRLRLVEELQVDQLWDALLSRELFRPHMIEDIQRAGSGSRRDQARQLIIDLETRGSQALPLFISCLEDTGQDMLASFLRTNRQAAKLSKPTLENLTPVVLRPEIRKPEVLRPETPRPVDIGSGGFGDVGALESLRGNADLAYILSMEPCGHCLIINNVNFCRESGLRTRTGSNIDCEKLRRRFSSLHFMVEVKGDLTAKKMVLALLELAQQDHGALDCCVVVILSHGCQASHLQFPGAVYGTDGCPVSVEKIVNIFNGTSCPSLGGKPKLFFIQACGGEQKDHGFEVASTSPEDESPGSNPEPDATPFQEGLRTFDQLDAISSLPTPSDIFVSYSTFPGFVSWRDPKSGSWYVETLDDIFEQWAHSEDLQSLLLRVANAVSVKGIYKQMPGCFNFLRKKLFFKTS
notes: also called recombinant pro-Caspase-9

The target of assay [1] is T1, GST-HBXIP (human, UniProt O43504 1-91). Kind of assay: GST pull-down, anti-Caspase-3 immunoblot. (In general: Immunoblotting shows a protein as a band on a membrane.)
Assay [2] deals with HBXIP/Survivin complex (GST-HBXIP with purified untagged Survivin) (human, UniProt O43504 1-91; O15392 1-142). Kind of assay: GST pull-down, anti-Caspase-3 immunoblot.
The target of assay [3] is T1, GST-HBXIP. Briefly: GST pull-down, anti-Caspase-9 immunoblot.
Assay [4] deals with B3. Briefly: GST pull-down in the presence of Survivin, anti-Caspase-9 immunoblot.

B1: His6-pro-Caspase-3 (enzyme)
chain: HHHHHHMENTENSVDSKSIKNLEPKIIHGSESMDSGISLDNSYKMDYPEMGLCIIINNKNFHKSTGMTSRSGTDVDAANLRETFRNLKYEVRNKNDLTREEIVELMRDVSKEDHSKRSSFVCVLLSHGEEGIIFGTNGPVDLKKITNFFRGDRCRSLTGKPKLFIIQACRGTELDCGIETDSGVDDDMACHKIPVEADFLYAYSTAPGYYSWRNSKDGSWFIQSLCAMLKQYADKLEFMHILTRVNRKVATEFESFSFDATFHAKKQIPCIVSMLTKELYFYH
In the case of B1, the binding result in assay [1] and in assay [2] was “no binding” each time.

B2: active His6-Caspase-9 (lacking CARD domain) (enzyme)
chain: HHHHHHVGALESLRGNADLAYILSMEPCGHCLIINNVNFCRESGLRTRTGSNIDCEKLRRRFSSLHFMVEVKGDLTAKKMVLALLELAQQDHGALDCCVVVILSHGCQASHLQFPGAVYGTDGCPVSVEKIVNIFNGTSCPSLGGKPKLFFIQACGGEQKDHGFEVASTSPEDESPGSNPEPDATPFQEGLRTFDQLDAISSLPTPSDIFVSYSTFPGFVSWRDPKSGSWYVETLDDIFEQWAHSEDLQSLLLRVANAVSVKGIYKQMPGCFNFLRKKLFFKTS
notes: also called active Caspase-9
Turning to B2, in assay [3], the binding result is listed as “no binding”.

On to B3, for which the binding result in assay [3] is on record as “no binding”.

B4: GST-CD40 (cytosolic domain) control protein (other, UniProt P25942 216-277, looked up, not shown: a dimerising Fc or GST)
chain: KKVAKKPTNKAPHPKQEPQEINFPDDLPGSNTAAPVQETLHGCQPVTQEDGKESRISVQERQ
notes: domain: cytosolic domain
For the molecule B4, the binding result in assay [4] is “no binding”.
